Patent US10124035B2, “DISC-1 pathway activators in the control of neurogenesis” (Massachusetts Institute of Technology, priority 2008, dated 2018)
Blank lines part the entries; values can stand above or below the molecule they belong to.

Columns and labels:
[1] = test system: TCF reporter in 293T cells; assay: TCF reporter activity in DISC1 knockdown 293T cells with Wnt3a conditional medium; type: cell-based; conditions: 16 hours
Protocol: Primary neural stem cells from E14 brains were infected with control or DISC1 shRNA lentiviruses. 48 hours after to transduction, cells were treated with vehicle or SB-216763 (5 μM) for 16 hours and then pulsed with 10 μM BrdU for 2 hours. Shown is percentage of GFP and BrdU double positive cells to total GFP positive cells (n=3, p<0.05). b. […] 1.5 μg of vector or WT-DISC1 was cotransfected with 0.5 μg control or DISC1 shRNA-2, 0.1 μg TCF reporter, and 10 ng pRL-TK vector into 293T cells. 48 hours after transfection, Wnt3a conditional medium with vehicle, SB-216763, or AR-A104418 was added for another 16 hours.
• Mice. Swiss Webster pregnant female mice were purchased from Taconic (Hudson, N.Y.). • Cell Culture. AHPs were kindly provided by Dr. Gage (Lie, D. C. et al. Wnt signaling to regulates adult hippocampal neurogenesis. Nature 437, 1370-5 (2005)) and cultured under conditions described previously (Palmer, T. D., Takahashi, J. & Gage, F. H. The adult rat hippocampus contains primordial neural stem cells. Mol Cell Neurosci 8, 389-404 (1997)). Primary neural progenitors were isolated from E14 mouse embryos and cultured as described previously (Sanada, K. & Tsai, L. H. G protein betagamma subunits and AGS3 control spindle orientation and asymmetric cell fate of cerebral cortical progenitors. Cell 122, 119-31 (2005)). N2a and 293T cells were cultured in DMEM medium containing 10% FBS, L-glutamine, and penicillin/streptomycin. Wnt3a expressing L cells and untransfected L cells were obtained from ATCC (Manassas, Va.). Wnt3a conditional medium was produced according to the ATCC protocol. To induce AHP differentiation, FGF2 was removed from the culture medium and 1 μM retinoic acid/1% FBS was added to the medium for 4 days. • Reagents. Recombinant Wnt3a protein was obtained from Chemicon (Rosemont, Ill.). FGF2 was obtained from PeproTech (Rocky Hill, N.J.). Recombinant GST-GSK3β was obtained from Active Motif (Carlsbad, Calif.). Recombinant GST-β-catenin and GST-axin were obtained from Millipore (Billerica, Mass.). […]

GSK3β [2] = molecular target: T1, GSK3β (Homo sapiens, UniProt P49841); assay: GSK3β in vitro kinase assay (β-catenin/axin phosphorylation, Y216 autophosphorylation); type: biochemical; conditions: for inhibition of GSK3β / inhibition of GSK3β kinase activity by peptides: in vitro kinase assay; for inhibition of GSK3β kinase activity by peptides: dose-response or comparison
T1 construct: GST; purchased Active Motif (Carlsbad, Calif.)
T1 sequence (P49841 whole entry): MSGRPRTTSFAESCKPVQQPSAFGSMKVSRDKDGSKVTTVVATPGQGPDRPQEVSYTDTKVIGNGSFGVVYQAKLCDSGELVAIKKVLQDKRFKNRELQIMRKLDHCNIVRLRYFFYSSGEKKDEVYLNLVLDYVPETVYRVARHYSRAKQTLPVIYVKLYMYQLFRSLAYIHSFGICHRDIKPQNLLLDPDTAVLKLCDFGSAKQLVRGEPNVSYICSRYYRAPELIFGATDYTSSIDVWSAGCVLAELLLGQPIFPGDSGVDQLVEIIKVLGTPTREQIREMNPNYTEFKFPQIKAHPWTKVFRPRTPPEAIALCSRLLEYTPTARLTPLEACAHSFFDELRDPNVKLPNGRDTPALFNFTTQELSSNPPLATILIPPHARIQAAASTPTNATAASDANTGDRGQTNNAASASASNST
Text: (§1) • Mice. Swiss Webster pregnant female mice were purchased from Taconic (Hudson, N.Y.). • Cell Culture. AHPs were kindly provided by Dr. Gage (Lie, D. C. et al. Wnt signaling to regulates adult hippocampal neurogenesis. Nature 437, 1370-5 (2005)) and cultured under conditions described previously (Palmer, T. D., Takahashi, J. & Gage, F. H. The adult rat hippocampus contains primordial neural stem cells. Mol Cell Neurosci 8, 389-404 (1997)). Primary neural progenitors were isolated from E14 mouse embryos and cultured as described previously (Sanada, K. & Tsai, L. H. G protein betagamma subunits and AGS3 control spindle orientation and asymmetric cell fate of cerebral cortical progenitors. Cell 122, 119-31 (2005)). N2a and 293T cells were cultured in DMEM medium containing 10% FBS, L-glutamine, and penicillin/streptomycin. Wnt3a expressing L cells and untransfected L cells were obtained from ATCC (Manassas, Va.). Wnt3a conditional medium was produced according to the ATCC protocol. To induce AHP differentiation, FGF2 was removed from the culture medium and 1 μM retinoic acid/1% FBS was added to the medium for 4 days. • Reagents. Recombinant Wnt3a protein was obtained from Chemicon (Rosemont, Ill.). FGF2 was obtained from PeproTech (Rocky Hill, N.J.). Recombinant GST-GSK3β was obtained from Active Motif (Carlsbad, Calif.). Recombinant GST-β-catenin and GST-axin were obtained from Millipore (Billerica, Mass.). The GSK313 inhibitor, SB-216763, AR-A104418 and His-GSK3β, were obtained from Sigma-Aldrich (Sigma-Aldrich, St. Louis, Mo.). L803-MTS was obtained from Calbiochem (San Diego, Calif.). GST-AKT1 was obtained from Cell Signaling (Beverly, Mass.). GST-CASK-1 (CASK fragment from 316-415aa), GST-CASK-2 (CASK fragment from 777-974aa), and GST-p25 proteins were kindly provided by Dr. B. A. Samuels. Mouse DISC1 peptidel (40-78aa: GYMRSTAGSG IGFLSPAVGMPHPSSAG LTGQQSQHSQS; SEQ ID NO: 1) and Mouse DISC1 peptide 2 (195-238aa, […] GERGEAEGCLPSREAE; SEQ ID NO: 2) were synthesized by Chi Scientific (Maynard, Mass.). • Antibodies. The primary antibodies used in this study were the following: rabbit anti-DISC1 C-terminal antibody, mouse and rabbit anti-GFP antibodies (Invitrogen, Carlsbad, Calif.); affinity purified rabbit anti-DISC1 antibody (Novus, Littleton, Colo.) for immunohistochemistry; mouse anti-FLAG and mouse anti-Actin antibody; mouse anti-GSK3β antibody, mouse anti-β-catenin antibody, mouse anti-pY216 GSK3β antibody, and mouse anti-nestin antibody (BD Biosciences, San Diego, Calif.); rabbit anti-[…] β-catenin antibody, rabbit anti-pS9 GSK3β antibody, and mouse anti-cyclin to D1 antibody (Cell Signaling); mouse anti-Dv12 antibody, mouse anti-HA antibody, mouse anti-GST antibody, mouse anti-ubiquitin antibody, and rabbit anti-β-catenin antibody (Santa Cruz, Santa Cruz, Calif.); mouse Tuj-1 antibody (BABCO, Harrisburg, Pa.); mouse anti-BrdU antibody (DakoCytomation, Glostrup, Denmark); guinea pig anti-doublecortin antibody (Chemicon, Rosemont, Ill.); chicken anti-GFP antibody (Ayes Labs, Tigard, Oreg.); rabbit anti-pS10 Histone H3 antibody (Upstate, Lake Placid, N.Y.). • Constructs. The sequences for shRNAs targeting DISC1 are as follows: control shRNA: 5′-CGGCTGAAACAAGAGTTGG-3′ (SEQ ID NO:3); DISC1 shRNA-1: 5′-GGCAAACACTGTGA AGT GC-3′ (SEQ ID NO:4); DISC1 shRNA-2: 5′-[…]-3′ (SEQ ID NO:5)(Kamiya A. et al. A schizophrenia-associated mutation of DISC1 perturbs cerebral cortex development. Nat. Cell Biol 7, 1167-78 (2005)). DISC1 shRNA-1 recognizes both rat and mouse DISC1. […]

GSK3β [3] = molecular target: T1, GSK3β; assay: GSK3β SPR (surface plasmon resonance) binding assay; conditions: for percent theoretical maximal response (binding to GSK3β): concentration of 25 μM
Protocol: FIG. 16B is a schematic of overlapping 15-mer peptides that covered peptide 2 and a graph showing the ability of the peptides to bind to GSK3β.
Surface plasmon resonance (SPR) was used to determine whether peptide 2 directly binds to GSK3β. GSK3β SPR binding assays were carried out with peptide 1, peptide 2, the GSK3β inhibitor L803-MTS, and as a negative control, a peptide from the N-type calcium channel, CACNA1B (FIG. 6A). […] To identify the peptide 2 sequences that mediate this interaction with GSK3β, we designed overlapping 15-mer peptides that covered peptide 2 and tested their binding to GSK3β SPR (FIG. 16B).

[4] = test system: neural progenitors in embryonic mouse brains; assay: In utero electroporation of shRNA into E13 embryonic mouse brains; type: in vivo
Text: as §1

AHPs = assay: Immunoblot of β-catenin and cyclin D1 in transduced AHPs; type: cell-based
Text: • Mice. Swiss Webster pregnant female mice were purchased from Taconic (Hudson, N.Y.). • Cell Culture. AHPs were kindly provided by Dr. Gage (Lie, D. C. et al. Wnt signaling to regulates adult hippocampal neurogenesis. Nature 437, 1370-5 (2005)) and cultured under conditions described previously (Palmer, T. D., Takahashi, J. & Gage, F. H. The adult rat hippocampus contains primordial neural stem cells. Mol Cell Neurosci 8, 389-404 (1997)). Primary neural progenitors were isolated from E14 mouse embryos and cultured as described previously (Sanada, K. & Tsai, L. H. G protein betagamma subunits and AGS3 control spindle orientation and asymmetric cell fate of cerebral cortical progenitors. Cell 122, 119-31 (2005)). N2a and 293T cells were cultured in DMEM medium containing 10% FBS, L-glutamine, and penicillin/streptomycin. Wnt3a expressing L cells and untransfected L cells were obtained from ATCC (Manassas, Va.). Wnt3a conditional medium was produced according to the ATCC protocol. To induce AHP differentiation, FGF2 was removed from the culture medium and 1 μM retinoic acid/1% FBS was added to the medium for 4 days. • Reagents. Recombinant Wnt3a protein was obtained from Chemicon (Rosemont, Ill.). FGF2 was obtained from PeproTech (Rocky Hill, N.J.). Recombinant GST-GSK3β was obtained from Active Motif (Carlsbad, Calif.). Recombinant GST-β-catenin and GST-axin were obtained from Millipore (Billerica, Mass.). The GSK313 inhibitor, SB-216763, AR-A104418 and His-GSK3β, were obtained from Sigma-Aldrich (Sigma-Aldrich, St. Louis, Mo.). L803-MTS was obtained from Calbiochem (San Diego, Calif.). GST-AKT1 was obtained from Cell Signaling (Beverly, Mass.). GST-CASK-1 (CASK fragment from 316-415aa), GST-CASK-2 (CASK fragment from 777-974aa), and GST-p25 proteins were kindly provided by Dr. B. A. Samuels. Mouse DISC1 peptidel (40-78aa: GYMRSTAGSG IGFLSPAVGMPHPSSAG LTGQQSQHSQS; SEQ ID NO: 1) and Mouse DISC1 peptide 2 (195-238aa, […] GERGEAEGCLPSREAE; SEQ ID NO: 2) were synthesized by Chi Scientific (Maynard, Mass.). • Antibodies. […]

[5] = electroporated at E13, analyzed 3 days later

Molecule: COc1ccc(CNC(=O)Nc2ncc([N+](=O)[O-])s2)cc1 [AR-A014418]
TCF reporter activity in DISC1 knockdown cells [1]: rescued TCF activity in DISC1 knockdown cells to control levels
TCF reporter activity in DISC1 knockdown cells ([1]; listed as AR-A104418): rescues the TCF activation defect caused by DISC1 knockdown

Molecule: peptide 1: Mouse DISC1 peptide, 40-78aa, SEQ ID NO: 1, synthesized by Chi Scientific (GYMRSTAGSGIGFLSPAVGMPHPSSAGLTGQQSQHSQS; listed as Mus musculus)
inhibition of GSK3β (GSK3β [2]; at 80 μM): did not inhibit GSK3β
inhibition of GSK3β kinase activity by peptides (GSK3β [2]; no single concentration): did not inhibit GSK3β activity
percent theoretical maximal response (binding to GSK3β) (GSK3β [3]): 62%

Molecule: DISC1 shRNA-2: shRNA targeting human, rat and mouse DISC1, SEQ ID NO:5, in pLentiLox 3.7 vector (GCAGGAGGTCAGCAAGGCCTTG)
BrdU labeling ([4]; BrdU 2 hours prior to collection): 15.9±2.2%
cell cycle exit index ([4]; electroporated E13, BrdU at E15, collected E16): 66.5±13.2%
GFP+Dcx+ cells ([4]; electroporated E13, sacrificed E16, SVZ): 42.3±5.8%
GFP positive cells in the VZ/SVZ [4, 5]: 10%
GFP positive cells in the cortical plate [4, 5]: 62%
mitotic index ([4]; pH3, electroporated E13, sacrificed E15): 3.5±0.8%
reduction of Cyclin D1 levels (AHPs): 70%
β-catenin levels (AHPs): 19 % to control

Molecule: peptide 2: Mouse DISC1 peptide, 195-238aa, PADIASLPGFQDTFTSSFSFIQLSLGAAGERGEAEGCLPSREAE, SEQ ID NO: 2 (listed as Mus musculus)
inhibition of GSK3β (GSK3β [2]; at 1 μM): did not inhibit GSK3β
inhibition of GSK3β (GSK3β [2]; at 10 μM): inhibited GSK3β
inhibition of GSK3β kinase activity by peptides (GSK3β [2]; no single concentration): inhibited GSK3β more potently than the commercial GSK3β peptide inhibitor, L803-MTS
inhibition of GSK3β kinase activity by peptides (GSK3β [2]; no single concentration, listed as DISC1 peptide 1(195-238aa)): dose-dependent
inhibition of GSK3β kinase activity by peptides (GSK3β [2]; no single concentration, listed as Peptide 195-238): inhibited GSK3β in a dose-dependent manner more potently than the commercial peptide inhibitor, L803-MTS
percent theoretical maximal response (binding to GSK3β) (GSK3β [3]): 197%

Molecule: peptide 3: 15-mer peptide that encompasses mDISC1 amino acids 211 to 225 (SFSFIQLSLGAAGER; listed as Mus musculus)
inhibition of GSK3β kinase activity by peptides (GSK3β [2]; no single concentration): failed to inhibit GSK3β kinase activity
percent maximal binding to GSK3β (GSK3β [3]; 15-mer peptide): 238%
binding to GSK3β (GSK3β [3]; result in words): bound to GSK3β

inhibition of GSK3β activity by DISC1 fragments (GSK3β [2]; no single concentration, dose dependence, rank): able to inhibit GSK3 activity
B1: DISC1 fragment 221-355: GST-tagged mouse DISC1 protein fragment, amino acids 221-355 (protein, UniProt Q811T9 221-355, looked up, fragment)
chain: AAGERGEAEGCLPSREAEPLHQRPQEMAAEASSSDRPHGDPRHLWTFSLHAAPGLADLAQVTRSSSRQSECGTVSSSSSDTGFSSQDASSAGGRGDQGGGWADAHGWHTLLREWEPMLQDYLLSNRRQLEVTSLI
modifications: GST tag
inhibition of GSK3β autophosphorylation (Y216) (GSK3β [2]; GST-DISC1 fragments at 2 μM): started to inhibit GSK3β autophosphorylation
